The record followed here is US20180244762A1 (KODIAK SCIENCES, published 2018).

Assay [1] addresses T1, recombinant human PDGF-BB (human, UniProt P01127 82-190).
T1 construct: also called rhPDGF-BB; rhPDGFBB
As to the kind of experiment: competitive ELISA: OG1448 preincubated with 0.2 nM PDGF-BB plus rhVEGFA-165 at 0.2, 0.6 and 1.0 nM, competitor immobilized PDGFRb/Fc; in the presence of rhVEGFA-165 (0.2, 0.6 and 1.0 nM).

The target of assay [2] is T1, recombinant human PDGF-BB. Briefly: optical biosensor (Proteon XPR36 / Biacore 2000), binder amine-coupled, rhPDGF-BB injected, 25 C. On the procedure:
Binding studies were performed at 25° C. and 37° C. using BioRad Proteon XPR36 and Biacore 2000 optical biosensors equipped with GLM (Proteon) and CM4 (Biacore) sensor chips and equilibrated with running buffer (10 m/M HEPES, 150 mM NaCl, 0.005% Teen-20, 0.2 mg/ml BSA).

Assay [3] has as its target T1, recombinant human PDGF-BB. Briefly: cell-based or functional assay.
Assay [4] concerns the target T1, recombinant human PDGF-BB. Briefly: competitive ELISA: binder preincubated with 0.2 nM rhPDGF-BB, competitor immobilized PDGFR/Fc.
The target in assay [5] is T1, recombinant human PDGF-BB. Briefly: SPR (Biacore T200, 25 C), binder captured by anti-human IgG, PDGF-BB as analyte, run A. The protocol:
(§1) Each PDGF/VEGF variant was captured to a level of approximately 150 RUs. The running and sample buffer for the PDGF analysis was HBS-EP+300mM NaCl (10 mM 4-(2-hydroxyethyl)-1-piperazineethanesulfonic acid (HEPES) pH 7.4, 300 mM NaCl, 3mM ethylenediaminetetraacetic acid (EDTA), 0.05% (v/v) Tween-20). […] The surface was then regenerated with a 30 second pulse of 3M MgCl₂, a 30 second pulse of an ionic regeneration buffer (0.46M KSCN, 1.83 M MgCl2, 0.92 M urea, and 1.83 M guanidine-HCI pH7.4, Andersson et al., Analytical Chemistry, 1999) and then equilibrated with a 30 second pulse of HBS-EP+ 300 mM NaCl running buffer.
(§2) All SPR assays were performed at 25° C. with a data collection rate of1Hz using a Biacore T200 instrument (GE Healthcare). The resulting PDGP and VEGP sensorgrams were double referenced using both a control surface and buffer injections. The rate constants were determined by fitting the data to a 1:1 Langmuir model with Biacore T200 evaluation software v2.0 and the equation […].

Assay [6] concerns the target T1, recombinant human PDGF-BB. Briefly: SPR (Biacore T200, 25 C), binder captured by anti-human IgG, PDGF-BB as analyte, average of the runs. The protocol: as §1, §2
For assay [7], the target named is T1, recombinant human PDGF-BB. As to the kind of experiment: SPR (Biacore T200, 25 C), binder captured by anti-human IgG, PDGF-BB as analyte, run B. The protocol: as §1, §2
Assay [8] concerns the target T1, recombinant human PDGF-BB. Briefly: SPR (Biacore T200, 25 C), binder captured by anti-human IgG, PDGF-BB as analyte, run C. On the procedure:
as §1, §2

T1 sequence (P01127 82-190): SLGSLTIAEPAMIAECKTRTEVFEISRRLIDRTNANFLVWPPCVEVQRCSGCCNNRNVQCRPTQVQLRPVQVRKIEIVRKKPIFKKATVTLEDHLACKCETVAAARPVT

B1: OG1448 (TAF443 conjugated to the OG1802 biopolymer) (other)
heavy: LVVTPPGPELVLNVSSTFVLTCSGSAPVVWERMSQEPPQEMAKAQDGTFSSVLTLTNLTGLDTGEYFCTHNDSRGLETDERKRLYIFVPDPTVGFLPNDAEELFIFLTEITEITIPCRVTDPQLVVTLHEKKGDVALPVPYDHQRGFSGIFEDRSYICKTTIGDREVDSDAYYVYRLQVSSINVSVNAVQTVVRQGENITLMCIVIGNEVVNFEWTYPRKESGRLVEPVTDFLLDMPYHIRSILHIPSAELEDSGTYTCNVTESVNDHQDEKAINITVVESGGGGGSGGGGSEVQLVESGGGLVQPGGSLRLSCAASGYDFTHYGMNWVRQAPGKGLEWVGWINTYTGEPTYAADFKRRFTFSLDTSKSTAYLQMNSLRAEDTAVYYCAKYPYYYGTSHWYFDVWGQGTLVTVSSASTKGPSVFPLAPSSKSTSGGTAALGCLVKDYFPEPVTVSWNSGALTSGVHTFPAVLQSSGLYSLSSVVTVPSSSLGTQTYICNVNHKPSNTKVDKKVEPKSCDKTHTCPPCPAPEAAGAPSVFLFPPKPKDTLMISRTPEVTCVVVDVSHEDPEVKFNWYVDGVEVHNAKTKPREEQYNSTYRVVSVLTVLHQDWLNGKEYKCKVSNKALPAPIEKTISKAKGQPREPQVYTLPPSREEMTKNQVSLTCLVKGFYPSDIAVEWESNGQPENNYKTTPPVLDSDGSFFLYSKLTVDKSRWQQGNVFSCSVMHEALHNHYTQKSLSCSPGK
light: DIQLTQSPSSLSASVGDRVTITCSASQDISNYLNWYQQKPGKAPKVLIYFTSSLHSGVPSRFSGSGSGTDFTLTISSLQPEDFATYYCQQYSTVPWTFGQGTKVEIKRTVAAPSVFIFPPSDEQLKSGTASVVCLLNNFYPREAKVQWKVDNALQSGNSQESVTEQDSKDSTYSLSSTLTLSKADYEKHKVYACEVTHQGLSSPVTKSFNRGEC
modifications: OG1802 biopolymer (about 750 kDa, 9-arm HEMA-PC, maleimide) on the cysteine 443 residue (L443C, EU numbering)
notes: also called TAF443 polymer conjugate
In the case of B1, the IC50 in assay [1] was 25 pM; in assay [4] it was 54 pM. Moreover, the Kd in assay [2] was 17 pM. Also, the “Inhibition of PDGF induced proliferation of HPVPs, IC50” value in assay [3] came to 2900 pM.

B2: TAF443-3A250K (other)
heavy: LVVTPPGPELVLNVSSTFVLTCSGSAPVVWERMSQEPPQEMAKAQDGTFSSVLTLTNLTGLDTGEYFCTHNDSRGLETDERKRLYIFVPDPTVGFLPNDAEELFIFLTEITEITIPCRVTDPQLVVTLHEKKGDVALPVPYDHQRGFSGIFEDRSYICKTTIGDREVDSDAYYVYRLQVSSINVSVNAVQTVVRQGENITLMCIVIGNEVVNFEWTYPRKESGRLVEPVTDFLLDMPYHIRSILHIPSAELEDSGTYTCNVTESVNDHQDEKAINITVVESGGGGGSGGGGSEVQLVESGGGLVQPGGSLRLSCAASGYDFTHYGMNWVRQAPGKGLEWVGWINTYTGEPTYAADFKRRFTFSLDTSKSTAYLQMNSLRAEDTAVYYCAKYPYYYGTSHWYFDVWGQGTLVTVSSASTKGPSVFPLAPSSKSTSGGTAALGCLVKDYFPEPVTVSWNSGALTSGVHTFPAVLQSSGLYSLSSVVTVPSSSLGTQTYICNVNHKPSNTKVDKKVEPKSCDKTHTCPPCPAPEAAGAPSVFLFPPKPKDTLMISRTPEVTCVVVDVSHEDPEVKFNWYVDGVEVHNAKTKPREEQYNSTYRVVSVLTVLHQDWLNGKEYKCKVSNKALPAPIEKTISKAKGQPREPQVYTLPPSREEMTKNQVSLTCLVKGFYPSDIAVEWESNGQPENNYKTTPPVLDSDGSFFLYSKLTVDKSRWQQGNVFSCSVMHEALHNHYTQKSLSCSPGK
light: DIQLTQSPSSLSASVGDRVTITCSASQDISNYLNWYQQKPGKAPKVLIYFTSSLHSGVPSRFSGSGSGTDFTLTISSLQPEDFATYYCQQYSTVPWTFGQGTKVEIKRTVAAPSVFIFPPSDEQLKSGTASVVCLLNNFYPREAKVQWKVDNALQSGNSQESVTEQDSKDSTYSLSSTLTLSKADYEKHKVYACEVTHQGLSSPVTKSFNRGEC
modifications: polymer conjugate, label 3A250K; polymer and attachment site not described for this conjugate
notes: also called R3644-3A
For B2, in assay [5], the Kd was 1.03 pM, the koff turned out to be 5.92e-05 s⁻¹, the on-rate constant (kon) came out at 5.76e+07 M⁻¹ s⁻¹ and the t½ was 3.25 h. For the same molecule, the Kd in assay [6] turned out to be 1.5 pM. In assay [7], the dissociation constant (Kd) turned out to be 1.73 pM, the koff was 4.96e-05 s⁻¹, the kon is 2.86e+07 M⁻¹ s⁻¹ and the t½ came out at 3.88 h. In addition, in assay [8], the dissociation constant Kd turned out to be 1.6 pM, the koff was 7.52e-05 s⁻¹, the kon turned out to be 4.71e+07 M⁻¹ s⁻¹ and the t½ is 2.56 h.
